From patent US20090123479A1 (published 2009) come the findings set out here.

Experiment [1] addresses T1, recombinant human IL-23 (human, UniProt Q9NPF7 20-189; P29460 23-328).
T1 construct: also called hIL-23
T1 sequence 1: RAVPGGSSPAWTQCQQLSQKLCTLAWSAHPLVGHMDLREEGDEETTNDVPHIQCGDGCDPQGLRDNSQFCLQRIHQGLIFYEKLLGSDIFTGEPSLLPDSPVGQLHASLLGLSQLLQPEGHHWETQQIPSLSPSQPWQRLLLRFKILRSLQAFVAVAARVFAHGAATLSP
T1 sequence 2: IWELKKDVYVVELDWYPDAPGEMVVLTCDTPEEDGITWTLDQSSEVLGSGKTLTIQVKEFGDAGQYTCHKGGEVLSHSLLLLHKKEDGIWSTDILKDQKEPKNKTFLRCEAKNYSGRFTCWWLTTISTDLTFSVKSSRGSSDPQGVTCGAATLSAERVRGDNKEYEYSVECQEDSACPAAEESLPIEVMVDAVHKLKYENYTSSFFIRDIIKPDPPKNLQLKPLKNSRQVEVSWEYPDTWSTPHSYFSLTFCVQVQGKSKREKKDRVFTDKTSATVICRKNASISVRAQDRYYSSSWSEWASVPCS
Put plainly: SPR (Biacore T100), CHO supernatant antibody captured on Protein A or anti-human IgG, IL-23 analyte at 256, 64, 16, 4, 1 nM. On the technique in general: Surface plasmon resonance follows binding to a sensor surface in real time, without labels.

Experiment [2] deals with T1, recombinant human IL-23. Put plainly: SPR (Biacore 3000), CHO supernatant antibody captured on Protein A or anti-human IgG, IL-23 analyte at 256, 64, 16, 4 nM.
The target in experiment [3] is T1, recombinant human IL-23. Put plainly: IL-23/IL-23R inhibition ELISA (first protocol, OD490): plate coated with human IL23R Fc chimera, antibody pre-incubated with constant human IL-23, bound IL-23 detected with biotinylated anti-human IL-12; tissue culture supernatant. The protocol: Chimeric and humanized mAbs were assessed for their ability to neutralise human IL-23 binding to human IL-23 receptor, and cyno IL23 binding to human IL23 receptor. Plates were coated with human IL23R Fc chimera at 1 μg/diluent (bicarbonate buffer). 50 μl/well of this mixture was incubated overnight at 4° C. The plates were then washed twice with Tris Buffered Saline with 0.05% Tween 20 (TBST). Plates were blocked with 1% BSA TBST 100 μl/well for a minimum of 1 hour at room temperature. The plates were then washed twice with Tris Buffered Saline with 0.05% Tween 20 (TBST). Various concentrations of antibody were incubated in a separate plate with a constant concentration of IL-23 for 1 hour at room temperature. 50 ul of each mixture were transferred to the assay plate and incubated at RT for 1 hr. They were then washed twice with Tris Buffered Saline with 0.05% Tween 20 (TBST). Bound IL23 was detected by anti human 1L12 Biotin labelled Ab (R&D systems BAF219) diluted to 100 ng/ml in 1% BSA TBST. 50 μl/well of the biotinylated antibody was added and incubated at RT for 1 hour. The plates were then washed twice with Tris Buffered Saline with 0.05% Tween 20 (TBST). ExtrAvidin-Peroxidase (Sigma E2886) was diluted 1/1000 in 1% BSA TBST, 50 μl/well was added to the plates. […] The plate was read at OD490 nm using the SOftmaxPRO versamax plate reader.

Experiment [4] concerns the target T1, recombinant human IL-23. Briefly: IL-23/IL-23R inhibition ELISA (optimised protocol, OD450): plate coated with human IL23R Fc chimera, antibody pre-incubated with constant human IL-23, bound IL-23 detected with biotinylated anti-human IL-12; purified antibody. Here is the method:
(§1) Optimised protocol: Plates were coated with human IL23R Fc chimera at […] (phosphate buffered saline). 50 μl/well of this mixture was incubated overnight at 4° C. The plates were then washed three times with Phosphate Buffered Saline with 0.05% Tween 20 (PBST). Plates were blocked with 4% skim milk powder (Fluka BioChemika #70166) PBST 100 μl/well for a minimum of 1 hour at room temperature. The plates were then washed three times with Phosphate Buffered Saline+0.05% Tween 20 (PBST). Various concentrations of antibody were incubated in a separate plate with a constant concentration of IL-23 for 1 hour at room temperature. 50 ul of each mixture were transferred to the assay plate and incubated at RT for 1 hr. They were then washed three times with Phosphate Buffered Saline+0.05% Tween 20 (PBST). Bound IL23 was detected by anti human 1L12 Biotin labelled Ab (R&D systems BAF219) diluted to 100 ng/ml in 4% skim milk powder (Fluka BioChemika #70166) PBST. 50 μl/well of the biotinylated antibody was added and incubated at RT for 1 hour. The plates were then washed three times with Phosphate Buffered Saline+0.05% Tween 20 (PBST). SA HRP (GE healthcare RPN4401) was diluted 1/4000 in 4% skim m ilk powder (Fluka BioChemika #70166) PBS, 50 μl/well was added to the plates. The plates were then washed three times with Phosphate Buffered Saline+0.05% Tween 20 (PBST). 50 ul/well of TMB was added to the plates and incubated at RT for 15 min. 25 μl/well of 3 MH₂SO₄ was added to the wells already containing TMB. The plate was read at OD450 nm using the SOftmaxPRO versamax plate reader.

Experiment [5] concerns the target T2, recombinant cynomologus IL-23 (cynomolgus, limits assumed).
T2 construct: also called cynomolgus IL-23; cyno IL23
T2 chain 1: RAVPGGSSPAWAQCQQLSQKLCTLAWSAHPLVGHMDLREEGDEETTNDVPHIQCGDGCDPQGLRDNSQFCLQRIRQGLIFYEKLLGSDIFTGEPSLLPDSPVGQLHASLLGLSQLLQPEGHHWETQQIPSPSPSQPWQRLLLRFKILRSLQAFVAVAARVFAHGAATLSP
T2 chain 2: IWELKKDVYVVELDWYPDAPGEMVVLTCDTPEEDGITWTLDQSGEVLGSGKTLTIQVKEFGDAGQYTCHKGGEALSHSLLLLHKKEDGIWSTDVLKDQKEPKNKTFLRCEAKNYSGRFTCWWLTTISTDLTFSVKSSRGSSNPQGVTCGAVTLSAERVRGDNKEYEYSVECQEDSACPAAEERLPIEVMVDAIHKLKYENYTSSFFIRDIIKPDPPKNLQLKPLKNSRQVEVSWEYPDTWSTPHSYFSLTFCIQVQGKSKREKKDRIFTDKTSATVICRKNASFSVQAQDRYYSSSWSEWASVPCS
Put plainly: IL-23/IL-23R inhibition ELISA (optimised protocol, OD450): plate coated with human IL23R Fc chimera, antibody pre-incubated with constant cynomolgus IL-23, bound IL-23 detected with biotinylated anti-human IL-12; purified antibody. Here is the method: as §1
(In an ELISA, binding on a coated surface is turned into a signal by an enzyme label.)

Experiment [6] concerns the target T1, recombinant human IL-23. Put plainly: sandwich ELISA (optimised protocol, OD450): plate coated with anti-human IL-12, antibody pre-incubated with constant human IL-23, bound antibody detected with anti-human IgG gamma chain HRP; purified antibody. Here is the method:
Optimised assay conditions: Plates were coated with anti human IL12 at 2 μg/diluent (phosphate buffered saline). 50 μl/well of this mixture was incubated overnight at 4° C. The plates were then washed three times with Phosphate Buffered Saline with 0.05% Tween 20 (PBST). Plates were blocked with 4% skim milk powder (Fluka BioChemika #70166) PBS 200 μl/well for a minimum of 1 hour at room temperature. The plates were then washed three times with Phosphate Buffered Saline+0.05% Tween 20 (PBST). Various concentrations of antibody were incubated in a separate plate with a constant concentration of IL-23 for 1 hour at room temperature. 50 ul of each mixture were transferred to the assay plate and incubated at RT for 1 hr. They were then washed three times with Phosphate Buffered Saline+0.05% Tween 20 (PBST). […] 50 μl/well of the detection antibody was added and incubated at RT for 1 hour. The plates were then washed three times with Phosphate Buffered Saline+0.05% Tween 20 (PBST). 50 μl/well of TMB was added to the plates and incubated at RT for 10 min. 50 μl/well of 1 MH₂SO₄ was added. The plate was read at OD450 nm using the SOftmaxPRO versamax plate reader.

One may read the Kd as the concentration at which binding is half-saturated. In general, koff refers to the rate constant with which the complex falls apart. As usually defined, the kon is the rate constant with which the complex forms. The term EC50 (read off the curve) denotes the concentration at which the effect is half-maximal.

B1: A3M1 (antibody, human IgG1, kappa, V domains shown)
VH: QVQLVQSGAEVKKPGSSVKVSCKASGYTFTSYGITWVRQAPGQGLEWMGENYPRSGNTYYNEKFKGRVTITADKSTSTAYMELSSLRSEDTAVYYCARSEFISTVVAPYYYALDYWGQGTLVTVSS
VL: DIVMTQSPDSLAVSLGERATINCKASKKVTIFGSISALHWYQQKPGQPPKLIYNGAKLESGVSDRFSDSGSQNRSPFGNQLSFTLTISSLQAEDVAVYYCLQNKEVPYTFGGGTKVEIKR
notes: Full length chains
Take B1: the Kd came out at 2.4 nM in experiment [1] and 1.5 nM in experiment [2]. Moreover, the koff came out at 0.00031 s⁻¹ in experiment [1] and 0.00036 s⁻¹ in experiment [2]. The association rate constant (kon) in experiment [1] worked out at 130000 M⁻¹ s⁻¹; in experiment [2], 240000 M⁻¹ s⁻¹. The “IC50 (read off the curve)” value in experiment [3] was ~10 ng/mL; in experiment [4], ~0.5 nM; in experiment [5] it was ~0.8 nM. In addition, in experiment [6], the half-maximal effective concentration (EC50 (read off the curve)) is ~0.04 nM.
